# B1: Mycobacterium tuberculosis LexA (natural protein)
# chain: MNDSNDTSVAGGAAGADSRVLSADSALTERQRTILDVIRASVTSRGYPPSIREIGDAVGLTSTSSVAHQLRTLERKGYLRRDPNRPRAVNVRGADDAALPPVTEVAGSDALPEPTFVPVLGRIAAGGPILAEEAVEDVFPLPRELVGEGTLFLLKVIGDSMVEAAICDGDWVVVRQQNVADNGDIVAAMIDGEATVKTFKRAGGQVWLMPHNPAFDPIPGNDATVLGKVVTVIRKV
# notes: also called Mtb LexA; WT Mtb LexA
# Target: the molecule itself
# Test: cross-linking; glutaraldehyde cross-linking of Mtb LexA with or without 3-nPBA (protein to inhibitor 1:100); stopped with 25 mM DTT; 12% SDS-PAGE
protein,measurement,value
B1,binding result,binds
